This is an account of results in PMC6534667.

For the data set, the target named is scFv PL2-6 (single-chain antibody variable fragment);Histone octamer H3 (H2A, H2B, H3, H4) (Mus musculus (mouse mAb PL2-6);Drosophila) (UniProt P84051+P02283+P02299+P84040). Briefly: ITC. The following applies: ITC: 20 mM Tris-HCl pH 7.4, 50 mM NaCl, 1 mM EDTA, 25 C; EMSA: 10 mM Tris pH 7.4, 1 mM EDTA, 30 mM NaCl, 1% Ficoll 6000, on ice 10 min, 5% acrylamide gel in ….

As usually defined, the Kd is the free concentration of one partner at which half of the binding sites on the other are occupied at equilibrium, for simple one-to-one binding. For 147 bp Widom 601 DNA (W601), the Kd amounted to 190 nM.
